Laboratory results from patent publication US20240270846A1 (published 2024).
Residue numbers refer to the chain shown, from its start. Names and notes keep the numbering of the source. Each block holds one binder with its values, some of them ahead of it.

Biological target: T1, CD3 epsilon homodimer protein (UniProt P07766 23-126)
T1 construct: Immobilized on Sensor chip CM4 by amine coupling; construct not described; also called CD3 (CD3 epsilon)
Assay: SPR Biacore T200, CD3 epsilon homodimer on CM4 chip, antibody as analyte;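 note: Amine-coupled CD3 epsilon homodimer, run at 25 °C in HBS-EP+ buffer, ratio is bound amount of each single-residue H chain variant over that of the parent antibody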

T1 sequence (P07766 23-126): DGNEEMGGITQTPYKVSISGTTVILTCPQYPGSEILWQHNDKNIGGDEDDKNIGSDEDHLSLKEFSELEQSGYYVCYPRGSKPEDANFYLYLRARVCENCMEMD

B1: CE115HA000 K75R one-arm antibody (antibody, human IgG1, kappa, L234A L235A, N297A, name in Kabat numbering)
heavy: QVQLVESGGGVVQPGRSLRLSCAASGFTFSNAWMHWVRQAPGKGLEWVAQIKAKSNNYATYYAESVKGRFTISRDDSRNSLYLQMNSLKTEDTAVYYCRYVHYGAYYGVDAWGQGTTVTVSSASTKGPSVFPLAPSSKSTSGGTAALGCLVKDYFPEPVTVSWNSGALTSGVHTFPAVLQSSGLYSLSSVVTVPSSSLGTQTYICNVNHKPSNTKVDKKVEPKSCDKTHTCPPCPAPEAAGGPSVFLFPPKPKDTLMISRTPEVTCVVVDVSHEDPEVKFNWYVDGVEVHNAKTKPREEQYASTYRVVSVLTVLHQDWLNGKEYKCKVSNKALPAPIEKTISKAKGQPREPQVYTLPPSRCELTKNQVSLSCAVKGFYPSDIAVEWESNGQPENNYKTTPPVLDSDGSFFLVSKLTVDKSRWQQGNVFSCSVMHEALHNHYTQKSLSLSPDYKDDDDK
chain: EPKSSDKTHTCPPCPAPELLGGPSVFLFPPKPKDTLMISRTPEVTCVVVDVSHEDPEVKFNWYVDGVEVHNAKTKPREEQYNSTYRVVSVLTVLHQDWLNGKEYKCKVSNKALPAPIEKTISKAKGQPREPQVCTLPPSRDELTKNQVSLWCLVKGFYPSDIAVEWESNGQPENNYKTTPPVLDSDGSFFLYSKLTVDKSRWQQGNVFSCSVMHEALHNRYTQKSLSLSP
light: DIVMTQSPLSLPVTPGEPASISCRSSQSLVHSNRNTYLHWYQQKPGQAPRLLIYKVSNRFSGVPDRFSGSGSGTDFTLKISRVEAEDVGVYYCGQGTQVPYTFGQGTKLEIKRTVAAPSVFIFPPSDEQLKSGTASVVCLLNNFYPREAKVQWKVDNALQSGNSQESVTEQDSKDSTYSLSSTLTLSKADYEKHKVYACEVTHQGLSSPVTKSFNRGEC
notes: one-arm antibody (one Fab)
ratio of amounts bound (Y/X vs CE115HA000): 1.01

B3: CE115HA000 N53Y one-arm antibody (antibody, human IgG1, kappa, L234A L235A, N297A, name in Kabat numbering)
heavy: B1 heavy with N56Y, R78K
chain: B1 chain
light: B1 light
notes: one-arm antibody (one Fab)
ratio of amounts bound (Y/X vs CE115HA000): 0.63

B4: CE115HA000 T57N one-arm antibody (antibody, human IgG1, kappa, L234A L235A, N297A, name in Kabat numbering)
heavy: B1 heavy with T60N, R78K
chain: B1 chain
light: B1 light
notes: one-arm antibody (one Fab)
ratio of amounts bound (Y/X vs CE115HA000): 0.97

B5: CE115HA000 V95G one-arm antibody (antibody, human IgG1, kappa, L234A L235A, N297A, name in Kabat numbering)
heavy: B1 heavy with R78K, V101G
chain: B1 chain
light: B1 light
notes: one-arm antibody (one Fab)
ratio of amounts bound (Y/X vs CE115HA000): 0.19

B7: CE115HA000 V100cE one-arm antibody (antibody, human IgG1, kappa, L234A L235A, N297A, name in Kabat numbering)
heavy: B1 heavy with R78K, V109E
chain: B1 chain
light: B1 light
notes: one-arm antibody (one Fab)
ratio of amounts bound (Y/X vs CE115HA000): 0.46

B8: CE115HA000 N82aD one-arm antibody (antibody, human IgG1, kappa, L234A L235A, N297A, name in Kabat numbering)
heavy: B1 heavy with R78K, N86D
chain: B1 chain
light: B1 light
notes: one-arm antibody (one Fab)
ratio of amounts bound (Y/X vs CE115HA000): 0.73

B9: CE115HA000 V95D one-arm antibody (antibody, human IgG1, kappa, L234A L235A, N297A, name in Kabat numbering)
heavy: B1 heavy with R78K, V101D
chain: B1 chain
light: B1 light
notes: one-arm antibody (one Fab)
ratio of amounts bound (Y/X vs CE115HA000): 0.24

B10: CE115HA000 S77T one-arm antibody (antibody, human IgG1, kappa, L234A L235A, N297A, name in Kabat numbering)
heavy: B1 heavy with R78K, S80T
chain: B1 chain
light: B1 light
notes: one-arm antibody (one Fab)
ratio of amounts bound (Y/X vs CE115HA000): 0.9

B11: CE115HA000 Y59S one-arm antibody (antibody, human IgG1, kappa, L234A L235A, N297A, name in Kabat numbering)
heavy: B1 heavy with Y62S, R78K
chain: B1 chain
light: B1 light
notes: one-arm antibody (one Fab)
ratio of amounts bound (Y/X vs CE115HA000): 0.94

B12: CE115HA000 Q105E one-arm antibody (antibody, human IgG1, kappa, L234A L235A, N297A, name in Kabat numbering)
heavy: B1 heavy with R78K, Q114E
chain: B1 chain
light: B1 light
notes: one-arm antibody (one Fab)
ratio of amounts bound (Y/X vs CE115HA000): 0.94

B13: CE115HA000 V100cP one-arm antibody (antibody, human IgG1, kappa, L234A L235A, N297A, name in Kabat numbering)
heavy: B1 heavy with R78K, V109P
chain: B1 chain
light: B1 light
notes: one-arm antibody (one Fab)
ratio of amounts bound (Y/X vs CE115HA000): 0.2

B16: CE115HA000 V95A one-arm antibody (antibody, human IgG1, kappa, L234A L235A, N297A, name in Kabat numbering)
heavy: B1 heavy with R78K, V101A
chain: B1 chain
light: B1 light
notes: one-arm antibody (one Fab)
ratio of amounts bound (Y/X vs CE115HA000): 0.11

B17: CE115HA000 Y58N one-arm antibody (antibody, human IgG1, kappa, L234A L235A, N297A, name in Kabat numbering)
heavy: B1 heavy with Y61N, R78K
chain: B1 chain
light: B1 light
notes: one-arm antibody (one Fab)
ratio of amounts bound (Y/X vs CE115HA000): 0.33

B18: CE115HA000 K75T one-arm antibody (antibody, human IgG1, kappa, L234A L235A, N297A, name in Kabat numbering)
heavy: B1 heavy with R78T
chain: B1 chain
light: B1 light
notes: one-arm antibody (one Fab)
ratio of amounts bound (Y/X vs CE115HA000): 0.84

B20: CE115HA000 N54Y one-arm antibody (antibody, human IgG1, kappa, L234A L235A, N297A, name in Kabat numbering)
heavy: B1 heavy with N57Y, R78K
chain: B1 chain
light: B1 light
notes: one-arm antibody (one Fab)
ratio of amounts bound (Y/X vs CE115HA000): 1.09

B21: CE115HA000 V95S one-arm antibody (antibody, human IgG1, kappa, L234A L235A, N297A, name in Kabat numbering)
heavy: B1 heavy with R78K, V101S
chain: B1 chain
light: B1 light
notes: one-arm antibody (one Fab)
ratio of amounts bound (Y/X vs CE115HA000): 0.22

B22: CE115HA000 Y58L one-arm antibody (antibody, human IgG1, kappa, L234A L235A, N297A, name in Kabat numbering)
heavy: B1 heavy with Y61L, R78K
chain: B1 chain
light: B1 light
notes: one-arm antibody (one Fab)
ratio of amounts bound (Y/X vs CE115HA000): 0.27

B25: CE115HA000 N53W one-arm antibody (antibody, human IgG1, kappa, L234A L235A, N297A, name in Kabat numbering)
heavy: B1 heavy with N56W, R78K
chain: B1 chain
light: B1 light
notes: one-arm antibody (one Fab)
ratio of amounts bound (Y/X vs CE115HA000): 0.88

B30: CE115HA000 N76S one-arm antibody (antibody, human IgG1, kappa, L234A L235A, N297A, name in Kabat numbering)
heavy: B1 heavy with R78K, N79S
chain: B1 chain
light: B1 light
notes: one-arm antibody (one Fab)
ratio of amounts bound (Y/X vs CE115HA000): 0.92

B31: CE115HA000 N53S one-arm antibody (antibody, human IgG1, kappa, L234A L235A, N297A, name in Kabat numbering)
heavy: B1 heavy with N56S, R78K
chain: B1 chain
light: B1 light
notes: one-arm antibody (one Fab)
ratio of amounts bound (Y/X vs CE115HA000): 0.83

B32: CE115HA000 V95E one-arm antibody (antibody, human IgG1, kappa, L234A L235A, N297A, name in Kabat numbering)
heavy: B1 heavy with R78K, V101E
chain: B1 chain
light: B1 light
notes: one-arm antibody (one Fab)
ratio of amounts bound (Y/X vs CE115HA000): 0.24

B33: CE115HA000 L78I one-arm antibody (antibody, human IgG1, kappa, L234A L235A, N297A, name in Kabat numbering)
heavy: B1 heavy with R78K, L81I
chain: B1 chain
light: B1 light
notes: one-arm antibody (one Fab)
ratio of amounts bound (Y/X vs CE115HA000): 1.34

More lines, now with the values ahead:

ratio of amounts bound (Y/X vs CE115HA000): 0.94
B2: CE115HA000 N54L one-arm antibody (antibody, human IgG1, kappa, L234A L235A, N297A, name in Kabat numbering)
heavy: B1 heavy with N57L, R78K
chain: B1 chain
light: B1 light
notes: one-arm antibody (one Fab)

ratio of amounts bound (Y/X vs CE115HA000): 1
B6: CE115HA000 S62P one-arm antibody (antibody, human IgG1, kappa, L234A L235A, N297A, name in Kabat numbering)
heavy: B1 heavy with S65P, R78K
chain: B1 chain
light: B1 light
notes: one-arm antibody (one Fab)

ratio of amounts bound (Y/X vs CE115HA000): 0.64
B14: CE115HA000 V95K one-arm antibody (antibody, human IgG1, kappa, L234A L235A, N297A, name in Kabat numbering)
heavy: B1 heavy with R78K, V101K
chain: B1 chain
light: B1 light
notes: one-arm antibody (one Fab)

ratio of amounts bound (Y/X vs CE115HA000): 0.44
B15: CE115HA000 V100cD one-arm antibody (antibody, human IgG1, kappa, L234A L235A, N297A, name in Kabat numbering)
heavy: B1 heavy with R78K, V109D
chain: B1 chain
light: B1 light
notes: one-arm antibody (one Fab)

ratio of amounts bound (Y/X vs CE115HA000): 0.84
B19: CE115HA000 N54S one-arm antibody (antibody, human IgG1, kappa, L234A L235A, N297A, name in Kabat numbering)
heavy: B1 heavy with N57S, R78K
chain: B1 chain
light: B1 light
notes: one-arm antibody (one Fab)

ratio of amounts bound (Y/X vs CE115HA000): 0.91
B23: CE115HA000 S74P one-arm antibody (antibody, human IgG1, kappa, L234A L235A, N297A, name in Kabat numbering)
heavy: B1 heavy with S77P, R78K
chain: B1 chain
light: B1 light
notes: one-arm antibody (one Fab)

ratio of amounts bound (Y/X vs CE115HA000): 0.18
B24: CE115HA000 Y58S one-arm antibody (antibody, human IgG1, kappa, L234A L235A, N297A, name in Kabat numbering)
heavy: B1 heavy with Y61S, R78K
chain: B1 chain
light: B1 light
notes: one-arm antibody (one Fab)

ratio of amounts bound (Y/X vs CE115HA000): 0.26
B26: CE115HA000 Y55S one-arm antibody (antibody, human IgG1, kappa, L234A L235A, N297A, name in Kabat numbering)
heavy: B1 heavy with Y58S, R78K
chain: B1 chain
light: B1 light
notes: one-arm antibody (one Fab)

ratio of amounts bound (Y/X vs CE115HA000): 0.84
B27: CE115HA000 N54Q one-arm antibody (antibody, human IgG1, kappa, L234A L235A, N297A, name in Kabat numbering)
heavy: B1 heavy with N57Q, R78K
chain: B1 chain
light: B1 light
notes: one-arm antibody (one Fab)

ratio of amounts bound (Y/X vs CE115HA000): 1.1
B28: CE115HA000 N53Q one-arm antibody (antibody, human IgG1, kappa, L234A L235A, N297A, name in Kabat numbering)
heavy: B1 heavy with N56Q, R78K
chain: B1 chain
light: B1 light
notes: one-arm antibody (one Fab)

ratio of amounts bound (Y/X vs CE115HA000): 0.19
B29: CE115HA000 Y58Q one-arm antibody (antibody, human IgG1, kappa, L234A L235A, N297A, name in Kabat numbering)
heavy: B1 heavy with Y61Q, R78K
chain: B1 chain
light: B1 light
notes: one-arm antibody (one Fab)
